From the Human Domainome abundance scans (Beltran et al. 2025)
± gives the uncertainty stated by the source.

B1: Storkhead-box protein 2, residues 64 to 141; numbered along this chain, Q9P2F5 (parent)
chain: SPISQSQFIPLGEILCLAISAMNSARKPVTQEALMEHLTTCFPGVPTPSQEILRHTLNTLVRERKIYPTPDGYFIVTP

Variants of: B1
Assay: abundance fitness (aPCA) (normalised: wild type 0, dead -1); higher = more abundant; growth selection in yeast, the domain comes from the species named
Settings: Homo sapiens

Variant | abundance fitness
T59V | 0.035 ± 0.035
T59K | -0.047 ± 0.077
T59P | -0.921 ± 0.1
T59C | 0.122 ± 0.076
T59G | 0.015 ± 0.033
T59M | -0.023 ± 0.061
T59S | 0.104 ± 0.043
T59E | 0.049 ± 0.061
T59Q | -0.031 ± 0.052
T59I | 0.029 ± 0.074
T59L | 0.067 ± 0.034
T59R | -0.001 ± 0.036
T59N | -0.087 ± 0.056
T59W | 0.062 ± 0.048
T59A | 0.017 ± 0.045
T59H | 0.049 ± 0.082
T59F | 0.018 ± 0.064
T59D | -0.016 ± 0.063
T56V | -0.042 ± 0.044
T56C | -0.056 ± 0.074
T56G | -0.051 ± 0.043
T56L | 0.054 ± 0.043
T56E | -0.087 ± 0.087
T56A | -0.046 ± 0.05

Variant | abundance fitness
T56W | -0.022 ± 0.058
T56K | -0.052 ± 0.1
T56M | 0.058 ± 0.085
T56F | -0.036 ± 0.034
T56P | -1.03 ± 0.12
T56D | -0.069 ± 0.1
T56S | -0.005 ± 0.045
T56Q | -0.045 ± 0.066
T56Y | -0.26 ± 0.23
V61H | -0.122 ± 0.097
V61Q | -0.013 ± 0.095
V61Y | -0.208 ± 0.13
V61D | -0.186 ± 0.1
V61N | -0.432 ± 0.28
V61L | -0.05 ± 0.046
V61P | -1.05 ± 0.14
V61C | 0.04 ± 0.078
V61S | -0.008 ± 0.043
V61F | -0.166 ± 0.1
V61K | -0.146 ± 0.077
V61M | 0.052 ± 0.067
V61A | 0.029 ± 0.042
V61T | 0.019 ± 0.071
V61E | -0.028 ± 0.062

Variant | abundance fitness
V61I | -0.014 ± 0.1
R54V | -0.012 ± 0.1
R54F | -0.082 ± 0.24
R54Y | -0.117 ± 0.33
R54M | 0 ± 0.081
R54L | -0.011 ± 0.039
R54E | 0.013 ± 0.15
R54P | -0.401 ± 0.11
R54W | -0.285 ± 0.091
R54N | 0.012 ± 0.25
R54G | 0.057 ± 0.1
R54C | -0.193 ± 0.17
R54D | -0.365 ± 0.2
R54K | -0.027 ± 0.3
R54H | -0.367 ± 0.14
R54Q | 0.066 ± 0.082
R54S | 0.015 ± 0.06
R54I | -0.037 ± 0.19
R54A | 0.015 ± 0.1
R62Y | 0.076 ± 0.21
R62E | 0.017 ± 0.075
R62I | 0.006 ± 0.07
R62C | -0.047 ± 0.066
R62M | 0.045 ± 0.095

Variant | abundance fitness
R62T | 0.053 ± 0.051
R62W | -0.081 ± 0.049
R62D | -0.05 ± 0.11
R62K | -0.109 ± 0.18
R62A | 0.049 ± 0.049
R62G | -0.008 ± 0.038
R62L | -0.037 ± 0.034
R62P | -0.944 ± 0.091
R62H | -0.051 ± 0.14
L60Y | -0.666 ± 0.12
L60C | -0.107 ± 0.076
L60P | -1.07 ± 0.099
L60M | -0.126 ± 0.055
L60S | -0.828 ± 0.052
L60I | -0.384 ± 0.1
L60W | -0.525 ± 0.067
L60V | -0.587 ± 0.052
L60F | -0.401 ± 0.068
L60Q | -0.342 ± 0.049
L60A | -0.213 ± 0.044
L60E | -0.835 ± 0.11
L60R | -1.07 ± 0.079
L60G | -0.706 ± 0.057
L60T | -0.87 ± 0.075

Variant | abundance fitness
L60H | -0.719 ± 0.11
L60N | -0.927 ± 0.17
L53Y | -0.108 ± 0.079
L53T | 0.026 ± 0.066
L53P | -1.11 ± 0.19
L53Q | -0.491 ± 0.11
L53V | -0.003 ± 0.047
L53S | -0.586 ± 0.053
L53W | -0.141 ± 0.024
L53R | -0.913 ± 0.092
E63C | -0.043 ± 0.055
E63M | -0.051 ± 0.077
E63G | -0.054 ± 0.035
E63H | -0.006 ± 0.075
E63A | -0.019 ± 0.039
E63I | -0.234 ± 0.13
E63N | -0.028 ± 0.088
E63D | -0.004 ± 0.089
E63K | 0.011 ± 0.05
E63P | -1.2 ± 0.11
N58P | -0.678 ± 0.074
N58R | -0.016 ± 0.036
N58I | -0.041 ± 0.076
N58S | -0.03 ± 0.048

Variant | abundance fitness
N58G | 0 ± 0.031
N58T | -0.018 ± 0.056
N58L | -0.025 ± 0.041
N58Q | -0.03 ± 0.037
N58C | -0.052 ± 0.072
N58D | -0.005 ± 0.078
N58H | 0.017 ± 0.13
N58F | -0.172 ± 0.068
N58V | 0.002 ± 0.035
N58E | 0.001 ± 0.065
N58A | 0.033 ± 0.04
N58Y | -0.203 ± 0.11
N58K | -0.071 ± 0.059
N58W | -0.093 ± 0.054
L57S | -0.799 ± 0.068
L57P | -1.22 ± 0.14
L57E | -0.784 ± 0.26
L57D | -0.793 ± 0.24
L57R | -1.11 ± 0.12
L57I | -0.04 ± 0.11
L57M | -0.066 ± 0.069
L57H | -1.1 ± 0.21
L57W | -0.269 ± 0.076
L57K | -0.953 ± 0.28

Variant | abundance fitness
L57T | -0.193 ± 0.058
L57C | -0.202 ± 0.083
L57G | -1.01 ± 0.082
L57A | -0.576 ± 0.058
L57Q | -0.924 ± 0.26
L57F | -0.306 ± 0.18
H55D | 0.07 ± 0.074
H55I | -0.103 ± 0.12
H55G | 0.06 ± 0.035
H55N | 0.109 ± 0.083
H55A | 0.007 ± 0.045
H55K | 0.007 ± 0.07
H55V | -0.035 ± 0.039
H55P | -0.223 ± 0.051
H55C | -0.033 ± 0.058
H55Y | -0.181 ± 0.11
H55S | -0.005 ± 0.04
H55E | 0.028 ± 0.052
H55R | -0.055 ± 0.045
H55T | 0.065 ± 0.051
H55L | -0.088 ± 0.039
H55F | -0.057 ± 0.08
H55W | -0.087 ± 0.091
